Target: eEF1A1 (eukaryotic elongation factor 1 subunit A1), MYC/DDK-tagged (human) (UniProt P68104)
Test: BLI; biotinylated eEF1 subunit (eEF1A1, eEF1B, eEF1D or eEF1G) immobilised on streptavidin biosensor; RT subunits, RT heterodimer, Gag or RTp66 mutants as analytes at 90, 30 and 10 nM (mutants at 90 nM); kinetic buffer 1 mM phosphate, 15 mM NaCl, 0.002% Tween-20, 0.1 mg/ml gelatine, 1000 rpm, OctetRed

Sequence of eEF1A1 (eukaryotic elongation factor 1 subunit A1), MYC/DDK-tagged (human) (P68104 whole entry): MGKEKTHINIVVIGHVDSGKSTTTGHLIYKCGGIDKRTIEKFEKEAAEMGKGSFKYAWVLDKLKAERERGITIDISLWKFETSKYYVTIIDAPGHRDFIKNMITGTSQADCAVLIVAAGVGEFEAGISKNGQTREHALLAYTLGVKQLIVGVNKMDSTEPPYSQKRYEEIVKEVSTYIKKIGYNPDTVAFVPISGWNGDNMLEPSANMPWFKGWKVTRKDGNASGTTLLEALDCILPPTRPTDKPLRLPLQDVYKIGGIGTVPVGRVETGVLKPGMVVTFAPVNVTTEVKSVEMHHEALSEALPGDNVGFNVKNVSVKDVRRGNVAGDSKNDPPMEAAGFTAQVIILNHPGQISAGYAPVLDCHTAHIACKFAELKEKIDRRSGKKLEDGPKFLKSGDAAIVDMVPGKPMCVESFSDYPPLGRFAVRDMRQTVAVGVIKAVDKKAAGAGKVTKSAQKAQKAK

Row | Substance | Kd [nM] | koff [s⁻¹] | kon [M⁻¹ s⁻¹]
1 | HIV-1 RT p51, 6xHis-tagged, purified (from UniProt P04585 588-1027) (natural protein; other documents disagree on this pair) | 4.13 | 0.000185 | 44800
2 | HIV-1 RT p66/p51 heterodimer, purified (from UniProt P04585 588-1147; P04585 588-1027) (complex) | 3.75 | 0.000207 | 55200

Source: publication PMC4666417
